Measured values: the nanobody polyreactivity screen of Harvey et al. (2022)

Assay: yeast display, Sf9 membrane polyspecificity reagent, FACS + sequencing; frameworks hold sequencing errors
In short: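 Synthetic nanobody libraries on Saccharomyces cerevisiae BJ5465 were galactose-induced for 36–48 hours, stained 1 hour at 4 °C with 10% biotinylated, detergent-solubilized Sf9 membrane reagent and enriched on streptavidin microbeads. FACS then separated cells into low and high (top ~1%) gates by anti-HA (expression) and streptavidin (reagent binding) fluorescence. Genes were colony-PCR amplified, MiSeq 2 × 250 sequenced and CDR-length filtered. A clone's polyreactivity label is that of its gate of origin.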

Row | Sequence | polyreactivity (PSR sort gate)
1 | QDQLVESGGGLVQAGGSLRLICAASGSTLPRYTMGWYRQAPGKERELVAAISFSGSSTYYADSVKGRFTISRDNAKNTVYLQMNSLKPEDTAVYYCRYGYNYWGQGTQVTVSS | high polyreactivity
2 | QDQLVESGGGLVQAGGSLRLRCADYGSTFYYYAMGWYRQAPGKERELVAVITRGGGTYYADSVKGRFTISRDNAKNTVYLQMNSLKPEDTAVYYCNARQRSSTRKGYNYWGQGTEVTVSS | high polyreactivity
3 | QDQLVESGGGLVQAGGSLRLSCAASAFIFSSYAMGWYRQAPGKERELVAAITVRAGRTYYADSVKGRFTISRDNAKYTVYLEMNSLKPEDSAVYYCAADSGLWGYYYWGQGTQVTVSS | high polyreactivity
4 | QDQLVESGGGLVQAGGSLRLSCAASGFIFALYAMGWYRQAPGKERELVAAINWSGGRTYYADSVKGRFTISRDNAKNTVYLQMNSLKPEDTAVYYCNRRAFSPYAANYYYWGQGTQVTVSS | high polyreactivity
5 | QDQLVESGGGLVQAGGSLRLSCAASGFIFPIYAMGWYRQAPGKERELVAGISGSGTSTYYADSVKGRFTISRDNAKNTVYFLMNSLKPEDTAVYYCNILWRGAARTRWDRGYWGLGTQVTVSS | high polyreactivity
6 | QDQLVESGGGLVQAGGSLRLSCAASGFIFWFYAMGWYRQAPGKERELVASISARGARTYYADSVKGRFTISRDNAKNTVYLQMNSLKPEDTAVYYCATTSPVWWRADDYWGQGTQVTVSS | high polyreactivity
7 | QDQLVESGGGLVQAGGSLRLSCAASGFILKPNAMGWYRQAPGKERELVAAISWSSGSPDYADSVKGRFTISRDNAKNTVYLQMNSLKPEDTAVYYCAADYFVYPDDWYDYWGQGTQVTVSS | low polyreactivity
8 | QDQLVESGGGLVQAGGSLRLSCAASGFTFFPYAMGWYRQAPGKERELVAGINDGGSTNYADSVKGRFTISRDNAKNTVYLQLNSLKPEDTAVYYCNADTPLSGGSSMGYWGQGTQVTVSS | low polyreactivity
9 | QDQLVESGGGLVQAGGSLRLSCAASGFTFGSYAMGWYRQAPGKERELVAAISSNGGNTYYADSVKGRFTISRDNAKNTVYLQMNSLKPEDTAVYYCAARYPSGTRKWYGYWGQGTQVTVSS | high polyreactivity
10 | QDQLVESGGGLVQAGGSLRLSCAASGFTFGYYVMGWYRQAPGKERELVAAITQRGGSTYADSVKGRFTISRDNAKNTVYLQMNSLKPEDTAVYYCAAPIYNGYASWQVYYWGQGTQVTVSS | high polyreactivity
11 | QDQLVESGGGLVQAGGSLRLSCAASGFTFQDYAMGWYRPAPGKERELVAAISTSDGNTYYADSVKGRFTISRDNAKNTVYLQMNSLKPEDTAVYYCAAQRNYGWVKFYYWGQGTQVTVSS | high polyreactivity
12 | QDQLVESGGGLVQAGGSLRLSCAASGFTFSHNVMGWSRQAPGKERELVAAITWSGDGTYYADSVKGRFTISRDNAKKSVYFQMNSLKTEDTAVYYCNARYGKEYDYWGQGTQVTVSS | low polyreactivity
13 | QDQLVESGGGLVQAGGSLRLSCAASGFTFYFYAMGWYRQAPGKERELVDAISRSGSRTYYADSVKGRFTISRDNAKNSVYLQMNILKPEDTAVYYCARVRPRGLYFVLHYDYWGQGTQVTVSS | high polyreactivity
14 | QDQLVESGGGLVQAGGSLRLSCAASGFTFYYNAMVLYRQAPGKERELVASISSNGTSTYYADSVKGRFTISLDNEKNTVYLHMNILKPEDTAVHYCNVDIFDPRTYVYWGQGTQVTVSS | low polyreactivity
15 | QDQLVESGGGLVQAGGSLRLSCAASGFTIQAYAMGWYRQAPGKERELVATISKSGGRTYYADSVKGRFTISRDNAKNTVYLQMNSLKPEDTAVYYCNKRVSGRHYDYWGQGTQVTVSS | high polyreactivity
16 | QDQLVESGGGLVQAGGSLRLSCAASGGIFLGNAMGWYRQAPGKERELVAAISFSGGSTYYADSVKGRFTISRDNAKNTVYLQMNSLKPEDTAVYYCAAAWNRGKYNYYYWGQGTQVTVSS | high polyreactivity
17 | QDQLVESGGGLVQAGGSLRLSCAASGGNFYGNAMGWYRQAPGKERELVATISRRGGSTYYADSVKGRFTISRDNAKNSVYLQMNSLKPEDTAVYYCAADARSSYYTKRFDYWGQGTQVTVSS | high polyreactivity
18 | QDQLVESGGGLVQAGGSLRLSCAASGGTFGGYAMGWYRQAPGKERELVAAITYSGGSTYYADSVKGRFTISRDNAKNTVYLQMNSLKPEDTAVYYCAQYHYRYYYWGQGTQVTVSS | high polyreactivity
19 | QDQLVESGGGLVQAGGSLRLSCAASGIIFEYYAMGWYRQAPGKEREFVASITSSDGSTYYADSVKGRFTISRDNAKNTVYLQMNILKPEDTAVYYCAAAGDYVVPISSTAGFGGDYWGQGTQVTVSS | low polyreactivity
20 | QDQLVESGGGLVQAGGSLRLSCAASGIIFYGYGMGWYRPAPGKERELVAAISRSGGSTYYADSVKGRFTISRDNAKNTVYLQMNSLKPEDTAVYSCAASGVTYDYWGQGTQVTVSS | high polyreactivity
21 | QDQLVESGGGLVQAGGSLRLSCAASGINFPLYAMGWYRQAAGKERELVAAISSSDGDTFYADSVKWRFTISRDNAKNTVYLQMNSLKPYDTAVYYCAAVAPTELLYTYGYYPYYYWGQGTQVTVSS | high polyreactivity
22 | QDQLVESGGGLVQAGGSLRLSCAASGITFAGYARGWYRQAPGKERELVAAITGRGGSTYYADSVKGRFTISRDNAKNTVYLQMNSLKPEDTAVYYCAARSSKTGTGVRFGYWGQGTQVTVSS | high polyreactivity

Row | Sequence | polyreactivity (PSR sort gate)
23 | QDQLVESGGGLVQAGGSLRLSCAASGITFAYYAMGWYRQAPGQERDFVAAINGGGSTNYADSVKGRFTISRDNAKNTVYLQMKSLKAEDTAVYYCNARRAYRAWDYPYDYWGQGTQVTVSS | high polyreactivity
24 | QDQLVESGGGLVQAGGSLRLSCAASGITFPGYPMGWYRHAPGKEREFVAAISWGGVSTYYADSVMGRFTISRDNAKNTVYLQMNSLKPEDTAVYYCNAEYPWSVVGYDYWGQGTQVTVSS | low polyreactivity
25 | QDQLVESGGGLVQAGGSLRLSCAASGITLQLNAMGWYIQAPGKEREFVARISISGGRTYYADSVKGRFTISRDNAKNTVYLQMNSLKPEDTAVYYCAARVGRGYREYGYWGQGTQVTVSS | high polyreactivity
26 | QDQLVESGGGLVQAGGSLRLSCAASGLTFSLYAMGWYRQAPGKERELVAAISWTGGSTYYADSVKGRFTISRDTPKNTVYLQMNSLKPEDTAVYYCNARYTLFARYGYDYWGQGTQVTVSS | low polyreactivity
27 | QDQLVESGGGLVQAGGSLRLSCAASGLTLYKNGLGWYRQAHGKEMELVAVISRSGGRTYYADSVKGRFTISRDNAKYTVYLQMNSLKPEDTAVYYCAARQYGPSYTYYYWGQGTQVTVSS | high polyreactivity
28 | QDQLVESGGGLVQAGGSLRLSCAASGNIFTSNAMGWYRQAPGKERELVAANTSGGSTYYADSVKGRFTISRDNAKNTVYLQMYSLKPEDTAVYFCASLRRPHLRPYYYWGQGTQGTVSS | high polyreactivity
29 | QDQLVESGGGLVQAGGSLRLSCAASGRIFAGNARGWYRQAPGKERELVATITRGGSTNYADSVKRPFTISRDNAKNTVYLQMNSLNPEDTAVYYCNADIRRHGGYAHVYWGQGTQVTVSS | low polyreactivity
30 | QDQLVESGGGLVQAGGSLRLSCAASGRIFDIYAMGWYRQAPGKERELVAAITWRGGSTYYADSVKGRFTISRDTAKNTLYLQMNSLKPEDTAVYYCAVDFITPRGSYYWGQGTQVTVSS | low polyreactivity
31 | QDQLVESGGGLVQAGGSLRLSCAASGRIFDLYAMGWYRQAPGKERELVATISTRGGRTYYADSVKGRFTISRDNAKNTVYLQMKRLKPEDTAVYYWNARYLGYGWFDYWGQGTQVTVSS | low polyreactivity
32 | QDQLVESGGGLVQAGGSLRLSCAASGRIFGINAMGWYRQAPGKERELVAAISSGGSTYYADSVKGRFTISRDNAKNTVYLQMNILKPEDTAVYYCAKGPSWKYYSYTLDYWGKGTQVTVSS | low polyreactivity
33 | QDQLVESGGGLVQAGGSLRLSCAASGRIFGPYTMGWYRQAPGKEREFVAAISRSGDSTYYADSVKGRFTISRDNAKNTVYLQMNSLKPEDSAVYYCAAKYGTRLSAYYYWGQGTLVTVSS | high polyreactivity
34 | QDQLVESGGGLVQAGGSLRLSCAASGRIFNANTMGWYRQAPGKERELVARITWSGGGTYYADSVKGRFTISRDNAKNTVYLQMNCLKPEDTAVYYCAARLLIRYYYWGHGTQVTVSS | high polyreactivity
35 | QDQLVESGGGLVQAGGSLRLSCAASGRIFPLYVMGWYRQAPGKERELVAAISRSGSRTYYADSVKGRFTISRDNAKNTVYLQMNSLKPEDTAVYYCAAVTDGTTRYDGDYWGQGTQVTVSS | high polyreactivity
36 | QDQLVESGGGLVQAGGSLRLSCAASGRIFQANAMGWYRQAPGKERELVASISSGGSTNYADSVKGRFTISRDNAKNTVYLQMNRLKPEDTAVYYCAARHPSSAYWVGYYWYDYWGQGTQVTVSS | low polyreactivity
37 | QDQLVESGGGLVQAGGSLRLSCAASGRIFRLNAMGWSRQAPWKERELVAAITRGGNTYYADSVKGRFTISRDNAKNTVYLQMNSLKPEDTAVYYCAATSSRVSGYRYDYWGQGTQVTVSS | high polyreactivity
38 | QDQLVESGGGLVQAGGSLRLSCAASGRIFTRYAMGWYRQAPGKEREFVAAISVRGGTTYYADSVKGRFTISRDNAKNTVYLQMNSLKPEDSAVYYCAARKISKYDYWGQGTQVTVSS | high polyreactivity
39 | QDQLVESGGGLVQAGGSLRLSCAASGRIFYTNAMGWYRQAPGKERQLVATISSTGSTNYADSVKGRFTISRDNAKNTVYLQMNSLKPEDTAVYYCATQVGWRTYSHRNRGYYYWGQGTQVTVSS | high polyreactivity
40 | QDQLVESGGGLVQAGGSLRLSCAASGRIFYTNAMGWYRQAPGQERDLVAVISWGGDTTYYADSVKGRFTISRDNAKNTVYLQMNSLKPEDTAVYYCNGDWGPTYEIYDSWGQGTQVTVSS | low polyreactivity
41 | QDQLVESGGGLVQAGGSLRLSCAASGRIFYVYAMGWYRQAPGKEREFVASISWSGGSTYYADSVKGRFTISRDNAKNTFYLQLNSLKPEDTSVYYCNARAFTHRYDYWGQGTQVTVSS | low polyreactivity
42 | QDQLVESGGGLVQAGGSLRLSCAASGRIFYYNAIGWYRQAPGKEMELVATITRAGGTYYADSVKGRFTISRDNAKNTVYLQMNSLKPEDTAVYYCAKRHPIVDDYKGDYWGQGTQVTVSS | low polyreactivity
43 | QDQLVESGGGLVQAGGSLRLSCAASGRIISANAMGWYRQAPGKERELVATISTGGGRTYYADSVKGRFTISRDNAKNTVYLQMNSLKPEDTAVYYCNATRNYARVRYYYWGQGTQVTVSS | high polyreactivity
